Patent publication US20260234247A1 (published 2026)
Numbering of substitutions follows the chain as printed.

B1: 12D12 (antibody, human IgG4 S228P, kappa, V domains shown)
VH: QVQLQQPGAELVKPGASVRMSCKASGYTFTSYWVHWVKQRPGQGLEWIGVIDPSDSYTSYNQNFKGKATLTVDTSSKTAYIHLSSLTSEDSAVYFCARGERYDGDYFAMDYWGQGTSVTVSS
VL: DIVMTQSPASLSVSVGETVTITCRASENIYSNLAWYQQKQGKSPQLLVYAATNLADGVPSRFSGSRSGTQYSLKINSLQSEDFGTYYCQHFWNTPRTFGGGTKLEIKR
B2: LK-RB1-57 (antibody, human IgG4 S228P, kappa, V domains shown)
VH: EVKLVESGGGLVQPGGSLKLSCAASGFTFSDYYMYWVRQTPEKRLEWVAYISNGGDITFYPDTVKGRFTISRDNARSTLYLQTSRLKSEDTAIYYCASATTEVGAMDHWGQGTSVTVSS
VL: DIVMTQSQKFMSTTVGDRVSITCKASQNVGTAVAWYQQKPGKSPKLLIYAASNRYTGVPDRFTGSGSGTDFTLTISNVQSEDLADYFCQQYSSYRTFGGGTSLEIKR
B3: LK-RB2-46 (antibody, human IgG4 S228P, kappa, V domains shown)
VH: QVQMQQSDAELVKPGASVKISCKVSGYTFTDQIIHWMKQRPEQGLEWIGYIYPRDDSIMYNEKFKGKATLTADKSSSTANMQLNSLTSEDSAVYFCAYDAYWYFDVWGTGTTVIVSS
VL: DIVMTQSHKFMSASVGDRVSITCKASQDVNTAVAWYRQDPGQSPKLLIYWASTRHTGVPDRFTGSGSGTDYTLTINNFQAEDLALYYCQQHYSPPLTFGAGTKLELKR
B4: LK-RB2-47 (antibody, human IgG4 S228P, kappa, V domains shown)
VH: QVQLKQSGPGLVQPSQSLSITCTVSGFSLISYGVHWVRQSPGKGLEWLGVIWSGGSTDYNAAFISRLSISKDNSKSQVFFKMNSLQADDTAIYYCARSFHYHGSTFDYWGQGTTLTVSS
VL: DIQMTQTTSSLSASLGDRVIISCRASQDINNYLNWYQQKPDGTVKLLIYFTSRLHSGVPSSFSGSGSGTDYSLTINNLEQEDIATYFCQQVNTLPYTFGGGTKLEIKR
B5: LK-RB2-20 (antibody, human IgG4 S228P, kappa, V domains shown)
VH: QVQLKQPGAERVKPGASVKMSCKASGYTFTRYWITWVKQRPGQGLEWIGDIYPGSATTNYNEKFKSKATLTEDTSSSTAYMQLSSLTSEDSAVYYCARSGDYSNSNYAMDYWGQGTSVTVSS
VL: NIEMTQSPKSMSMAVGERVTLSCKASENVGTYVSWYQQKPEQSPKLLIYGASNRNTGVPDRFTGSGSATDFTLTISSVQAEDLADYHCGQSYSYPFTFGSGTKLEIKR
B6: LK-RB2-25 (antibody, human IgG4 S228P, kappa, V domains shown)
VH: QVQLKESGPGLVAPSQSLSITCTVSGFSLTSYGVHWVRQPPGKGLEWLGVIWAGGSTKYNSALMSRLSINKDNSKSQVFLKMNSLQTDDTAMYYCARDQMVRSAMDYWGQGTSVTVSS
VL: DIQMIQSPSSMFASLGDRVSLSCRASQGIRGNLDWYQQKPGGTIKLLIYSTSNLNSAVPSRFSGSGSGSDYSLTISNLESEDFADYYCLQRNASPYTFGGGTKLEIKR
B7: LK-RB2-31 (antibody, human IgG4 S228P, kappa, V domains shown)
VH: QVQLQQPGAELVKPGASMKLSCKASGYTFTTYYMYWVKQRPGLGLEWIGGINPSNGGTTFNEKFKNKATLTVDKSSSTAYMQLRSLTSEDSAVYYCTRWRFFDVWGAGTTVTVSS
VL: SIVMTQTPEFLLVSAGDRVTITCKASQSVNNDVAWFQQKPGQSPKLLIYYASNRYTGVPDRFTGSGYGTDFTFTISTVQAEDLAIYFCQQDYSSPPTFGGATKLEIKR
B8: LK-RB2-32 (antibody, human IgG4 S228P, kappa, V domains shown)
VH: DVQLQESGPGLVKPSQSLSLTCSVTGYSITSGYYWNWIRQFPGNKLEWMGYISFDGSNHYNPSLRNRISITRDTFKNQFFLKLNSVTTEDTATFYCTRRDYNWFAYWGQGTLVTVSA
VL: DIVLTQSPVTLSVTPGDSVSLSCRASQNINKNLHWYQQRSHESPRLLIKYVSQSISGIPSRFSGSGSGTDFTLSINSVETEDFGMYFCQQSNSWPLTFGAGTKLELRR
B9: LK-RB2-7 (antibody, human IgG4 S228P, kappa, V domains shown)
VH: DVKLVESGEGLVKPGGSLKLSCAASGFTFSSYAMSWVRQTPEMRLEWVAYISSGGDHFYYADTVKGRFTISRDNARSTLYLQMSSLKSEDTAMYYCTREGASYDSNFLAWFAYWGQGTLVTVSA
VL: DIQMTQSPASLSVSVGETVTITCRASENIYSNLAWYQQKEGKSPQLLVYGATNLADGVPSRFSGSGSGTQYSLKINSLQSEDFGSYYCQNFWDIPLTFGAGTKLELKR
B10: LK-RB2-9 (antibody, human IgG4 S228P, kappa, V domains shown)
VH: DVQLQESGPGLVKPSQSLSLTCSVTGYSITSGYYWNWIRQFPGNKLEWMGYIGYDGNNNYNPSLKNRISITRDTSKNQFFLKLNSLTTEDTATYYCAREGSTMVTSWFAYWGQGTLVTVSA
VL: B9 VL with E40Q, S65R, G68D, N90H, I94T, L96Y, A100G, L106I
B11: LK-RB2-18 (antibody, human IgG4 S228P, kappa, V domains shown)
VH: EVQLQQSGPELVKPGTSVKISCKASGYTFTDYYMNWVKQSHGKSLEWIGDINPNNGGTSYNQKFKGKATLTVDKSSSTAYMELRSLTSEDSAVFYCARSGTTVVGTYWYFDVWGTGTTVTVSS
VL: B9 VL with E40Q, N90H, I94T, L96F, A100S, L106I
B12: LK-RB2-6 (antibody, human IgG4 S228P, kappa, V domains shown)
VH: QIQLVQSGPELKKPGETVKISCKASGYTFTTYGMSWVKQAPGKGLEWMGWINIYSGVPTYADDFKGRFAFSLETSASTAYLQINNLKNEDTATYFCARRGDYDSFYFDYWGQGTTLTVSS
VL: DIVMSQSPSSLAVSVGEKVTVSCKSSQSLLYSYNQKNYLAWYQQKPGQSPKLLIYWSSTRESGVPDRFTGSGSGTDFTLTISSVKAEDLAVYYCQQCYNYPYTFGGGTKLEIKR
B13: LK-RB2-13 (antibody, human IgG4 S228P, kappa, V domains shown)
VH: QIQLVQSGPELKKPGETVKISCKASGYTFTTYGMSWVKQAPGKGLQWMGWINTYSGVPTFADDFKGRFAFSLDTSASTAYLQINNLKNEDTATYFCARRINWDGYAMDYWGQGTSVTVSS
VL: B12 VL with I2S, V21M, Y33G, N37S, S57A, C97Y, N99S
B14: LK-RB2-17 (antibody, human IgG4 S228P, kappa, V domains shown)
VH: B13 VH with T31N, K65R, N85S, T93A
VL: B12 VL with I2S, V21L, Y33G, N37S, S57A, T59S, C97Y, N99S, Y100F
B15: p1E1 (antibody, human IgG4 S228P, kappa, V domains shown)
VH: EVQLQQWGAGLLKPSETLSLTCAVYGGSFSGYYWSWIRQPPGKGLEWIGEINHSGSTNYNPSLKSRVTISVDTSKNQFSLKLSSVTAADTAVYYCARLPTRWVTTRYFDLWGRGTLVTVSS
VL: ESVLTQPPSVSGAPGQRVTISCTGSSSNIGAGYDVHWYQQLPGTAPKLLIYGNSNRPSGVPDRFSVSKSGASASLAITGLQAEDEADYYCQSFDNSLSAYVFGGGTQLTVLG
B16: LK-RB2-10 (antibody, human IgG4 S228P, kappa, V domains shown)
VH: EVMLVESGGDLVKPGGSLKLSCAASGFTFSANTVSWLRRTPERRLEWVATISGGSDNTYCPDSVKGRFTISRDNARDTLYLQMSSLTSEDTALYFCARHYYDGPNWYFDVWGPGTTVTVSS
VL: DIVMTQSQKFMSSTGGDRVTITCKASQNVDTAVAWYQQKPGQSPKLLIYSASNRYIGVPDRFKGSGSGTDFSLTITNIQSEDLAEYFCQQYSSYPLTFGAGTKLELKR
B17: LK-RB2-39 (antibody, human IgG4 S228P, kappa, V domains shown)
VH: DVKLVESGGGSVQPGGSLKLSCAASGFTFSDYYMYWVRQTPEKRLEWVAYISNGGGNTYYPDTVKGRFTISRDNAKNTLYLQMSRLKSEDTAMYYCARSNWAWYFDVWGTGTTVTVSS
VL: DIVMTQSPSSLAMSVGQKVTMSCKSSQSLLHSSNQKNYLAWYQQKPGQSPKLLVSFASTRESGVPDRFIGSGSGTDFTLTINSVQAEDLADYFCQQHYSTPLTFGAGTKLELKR
B18: LK-RB2-11 (antibody, human IgG4 S228P, kappa, V domains shown)
VH: QIQLVQSGPELKKPGETVKISCKASGYSFITYGMSWVKQAPGKGLKWMGWINTYSGEPTYGDDFMGRFAFSLETSASTAYLQINNLKNEDTASYFCARYHYDDGMDYWGQGTSVTVSS
VL: DIKMTQSPSSMYASLGERVTITCKASQDINNYLSWFQQKPGKSPKTLIFRANRLVDGVPSRFSGSGSGQDYSLTISSLEDEDMGIYYCLQYDEFPWMFGGGTKLEIER
B19: LK-RB2-27 (antibody, human IgG4 S228P, kappa, V domains shown)
VH: DVKLVESGGGLVKPGGSLKLSCAASGFTFSSYSMSWVRQTPEKRLEWVATISTGGSYTYYPDSVKGRFTISRDNAKNTLYLQMSSLKSEDTAMFYCTRGSMDYWGQGTSVTVSS
VL: DILMTQSPSSMSVSLGDTVSITCHASQDISSNIGWLQQKPGNSFKGLIYHGTNLEDGVPSRFSGSGSGADYSLTISSLESEDFADYYCVQYAQFPYTFGGGTKLEIKR
B20: LK-RB2-28 (antibody, human IgG4 S228P, kappa, V domains shown)
VH: B19 VH with V64M
VL: B19 VL with T22A
B21: LK-RB2-43 (antibody, human IgG4 S228P, kappa, V domains shown)
VH: EVQLVESGGDLVKPGGSLKLSCAASGFTFSSYGMSWVRQTPDKRLEWVATISGGGTYTYYPDSVKGRFTISRDNAKNTLYLQMSSLKSEDTAMYYCASGAMDYWGQGTSVTVSS
VL: QIVLTQSPAILSASPGEKVTMTCSANSSVSSMYKYQQKPGSSPKPWIYGTSNLASGVPARFSGSGSGTSYSLTISSMEAADAATYYCQQYHSHPLTFGAGTKLELKR
B22: LK-RB2-44 (antibody, human IgG4 S228P, kappa, V domains shown)
VH: B21 VH
VL: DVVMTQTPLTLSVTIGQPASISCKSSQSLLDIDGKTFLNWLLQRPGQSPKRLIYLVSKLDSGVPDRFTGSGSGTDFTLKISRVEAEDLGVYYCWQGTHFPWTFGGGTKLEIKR

target: T1, human LILRB1 (human, UniProt Q8NHL6 24-458, limits assumed); test: Octet off-rate ranking;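 also: antibody dissociation rate constants against cynomolgus LILRB2 plus human LILRB1, LILRB2, LILRA1 and LILRA2, measured on an Octet instrument to rank binding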
T1 construct: also called hLILRB1
T1 sequence (Q8NHL6 24-458 limits assumed): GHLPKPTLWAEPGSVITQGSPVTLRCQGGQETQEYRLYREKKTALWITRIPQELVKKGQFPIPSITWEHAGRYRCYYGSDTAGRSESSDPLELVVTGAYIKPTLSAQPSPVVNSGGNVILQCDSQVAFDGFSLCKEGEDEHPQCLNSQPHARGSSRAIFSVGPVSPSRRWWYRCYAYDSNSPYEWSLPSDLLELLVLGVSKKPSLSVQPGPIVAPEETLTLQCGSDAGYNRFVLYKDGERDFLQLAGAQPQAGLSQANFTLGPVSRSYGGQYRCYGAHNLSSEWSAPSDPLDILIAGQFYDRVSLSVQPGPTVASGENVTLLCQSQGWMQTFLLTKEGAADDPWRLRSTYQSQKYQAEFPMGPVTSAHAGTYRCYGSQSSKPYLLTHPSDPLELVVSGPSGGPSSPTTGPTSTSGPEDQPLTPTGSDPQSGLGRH
Source text: Binding affinity of anti-LILRB1 and anti-LILRB2 antibodies against human LILRB1, LILRB2, LILRA1, LILRA2 and cynomolgus LILRB2 was ranked by measuring dissociation rate constant (Kdis) using the Octet system.

koff [s⁻¹]	Binder
0.000338	B1
< 1e-07	B2

target: T2, human LILRB1 expressed on CHOK1 cells (CHOK1-hLILRB1) (human, UniProt Q8NHL6 24-650); test: FACS binding to CHOK1-hLILRB1 cells
T2 construct: whole, on cells; also called CHOK1-LILRB1
T2 sequence (Q8NHL6 24-650): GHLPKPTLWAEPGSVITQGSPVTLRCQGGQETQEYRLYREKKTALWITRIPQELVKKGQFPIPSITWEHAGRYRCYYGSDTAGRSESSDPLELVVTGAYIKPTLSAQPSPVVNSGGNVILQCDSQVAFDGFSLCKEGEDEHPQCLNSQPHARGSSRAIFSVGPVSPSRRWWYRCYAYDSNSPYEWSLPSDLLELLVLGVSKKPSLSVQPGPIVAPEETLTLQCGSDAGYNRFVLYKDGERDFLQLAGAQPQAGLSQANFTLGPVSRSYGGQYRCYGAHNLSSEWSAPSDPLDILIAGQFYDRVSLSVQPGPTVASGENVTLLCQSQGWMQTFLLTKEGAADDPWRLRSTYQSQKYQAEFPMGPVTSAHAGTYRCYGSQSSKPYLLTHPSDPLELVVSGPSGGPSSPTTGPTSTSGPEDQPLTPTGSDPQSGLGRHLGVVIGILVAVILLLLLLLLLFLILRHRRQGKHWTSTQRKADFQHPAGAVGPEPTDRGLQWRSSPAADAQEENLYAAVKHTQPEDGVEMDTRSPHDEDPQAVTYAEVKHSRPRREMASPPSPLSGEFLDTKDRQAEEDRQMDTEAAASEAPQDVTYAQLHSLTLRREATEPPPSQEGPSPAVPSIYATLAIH

binding result	EC50 [nM]	Binder
no binding		B3
no binding		B4
no binding		B5
	1.71	B6
	1.99	B7
	4.54	B8
no binding		B9
no binding		B10
no binding		B11
no binding		B12
no binding		B13
no binding		B14
no binding		B15
no binding		B16
no binding		B17
no binding		B18
no binding		B19
no binding		B20
no binding		B21
no binding		B22

target: T3, human LILRB2 expressed on CHOK1 cells (CHOK1-hLILRB2) (human, UniProt Q8N423 22-597); test: FACS binding to CHOK1-hLILRB2 cells
T3 construct: whole, on cells; also called CHOK1-LILRB2
T3 sequence (Q8N423 22-597): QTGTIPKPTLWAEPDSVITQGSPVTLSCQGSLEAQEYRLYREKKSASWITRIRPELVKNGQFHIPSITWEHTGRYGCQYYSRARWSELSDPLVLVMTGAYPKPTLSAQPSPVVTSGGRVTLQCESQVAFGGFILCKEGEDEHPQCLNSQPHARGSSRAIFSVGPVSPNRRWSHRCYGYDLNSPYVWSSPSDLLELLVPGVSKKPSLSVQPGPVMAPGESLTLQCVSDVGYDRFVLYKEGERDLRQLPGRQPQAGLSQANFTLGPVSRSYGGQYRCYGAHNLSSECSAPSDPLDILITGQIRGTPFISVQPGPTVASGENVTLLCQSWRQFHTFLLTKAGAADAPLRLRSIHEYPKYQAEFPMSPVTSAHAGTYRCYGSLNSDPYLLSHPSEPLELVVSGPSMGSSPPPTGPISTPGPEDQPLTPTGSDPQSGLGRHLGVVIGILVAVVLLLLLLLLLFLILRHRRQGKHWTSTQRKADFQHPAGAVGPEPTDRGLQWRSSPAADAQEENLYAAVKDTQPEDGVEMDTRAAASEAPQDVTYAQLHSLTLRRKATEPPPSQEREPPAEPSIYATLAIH

EC50 [nM]	binding result	Binder
0.35		B3
	no binding	B4
0.14		B5
	no binding	B6
	no binding	B7
0.25		B9
0.17		B10
0.14		B11
0.66		B12
0.23		B13
0.16		B14
0.64		B15
0.27		B16
36.6		B17
0.27		B18
	no binding	B19
	no binding	B20
	no binding	B21
	no binding	B22
